These results are taken from paper PMC8887544.

The target of the first assay is Cas8f:Cas5f heterodimer (Xanthomonas albilineans, type I-F Cascade subunit) (Xanthomonas albilineans). The assay can be described thus: ITC; 25°C; AcrIE4-F7 (250 μM) injected into Cas8f:Cas5f (35 μM) in the cell; 20 mM Tris-HCl pH 7.5, 150 mM NaCl, 1 mM TCEP. In general terms: ITC needs no label: the signal is the heat of the interaction.
Substance AcrIE4-F7 (natural protein) came in with a Kd of 26 nM.

“AcrIE4-F7^CTD (C-terminal domain of AcrIE4-F7, residues 53-119) (domain or fragment)” had a Kd of 13 nM.

A further assay has as its target (His)6-MBP-tagged Cas8e (P. aeruginosa, type I-E) (P. aeruginosa (PRD-10 genomic DNA)). Kind of assay: ITC; 25°C; 20 μM of either AcrIE4-F7 or (His)6-MBP tagged Cas8e in the cell, titrated with 150-200 μM of the partner, both directions; 20 mM HEPES pH 7.0, 150 mM NaCl, 1 mM TCEP, 5% glycerol; triplicate.
AcrIE4-F7 (natural protein) gave a Kd of 200 nM, a dH of -14.7 kcal/mol and a stoichiometry N of 1.

Regarding AcrIE4-F7(D30K/E31K) (natural protein), the Kd was 4800 nM, the dH is -11.1 kcal/mol and the stoichiometry N came out at 0.8.

Consider AcrIE4-F7(E12K/D13K) (natural protein), for which the Kd was 400 nM, the dH was -22.8 kcal/mol and the stoichiometry N was 0.8.

Substance AcrIE4-F7(E38K/D39K) (natural protein) yielded a Kd of 190 nM, a dH of -12.8 kcal/mol and a stoichiometry N of 0.9.

With AcrIE4-F7(E46K) (natural protein), the Kd turned out to be 430 nM, the dH is -11.7 kcal/mol and the stoichiometry N was determined as 1.

For AcrIE4-F7(Y20A) (natural protein), the Kd worked out at 3500 nM, the dH was -5.6 kcal/mol and the stoichiometry N was 1.1.

“AcrIE4-F7^NTD (N-terminal domain of AcrIE4-F7, residues 1-52) (domain or fragment)”: the Kd amounted to 140 nM, the dH is -18.1 kcal/mol and the stoichiometry N amounted to 0.8.

As usually defined, the Kd is the constant that tells how readily two partners part at equilibrium. Higher therefore signals a looser complex. As a reminder, the stoichiometry N is a count of units in the complex or per binding partner.
